Laboratory results: patent publication US20060240417A1, “Agent controlling the apoptosis induction by p73” (Hisamitsu Pharmaceutical Co., Inc., priority 2002, published 2006)

T1: p73beta (UniProt O15350-2 O15350-2:1-499)
T1 sequence: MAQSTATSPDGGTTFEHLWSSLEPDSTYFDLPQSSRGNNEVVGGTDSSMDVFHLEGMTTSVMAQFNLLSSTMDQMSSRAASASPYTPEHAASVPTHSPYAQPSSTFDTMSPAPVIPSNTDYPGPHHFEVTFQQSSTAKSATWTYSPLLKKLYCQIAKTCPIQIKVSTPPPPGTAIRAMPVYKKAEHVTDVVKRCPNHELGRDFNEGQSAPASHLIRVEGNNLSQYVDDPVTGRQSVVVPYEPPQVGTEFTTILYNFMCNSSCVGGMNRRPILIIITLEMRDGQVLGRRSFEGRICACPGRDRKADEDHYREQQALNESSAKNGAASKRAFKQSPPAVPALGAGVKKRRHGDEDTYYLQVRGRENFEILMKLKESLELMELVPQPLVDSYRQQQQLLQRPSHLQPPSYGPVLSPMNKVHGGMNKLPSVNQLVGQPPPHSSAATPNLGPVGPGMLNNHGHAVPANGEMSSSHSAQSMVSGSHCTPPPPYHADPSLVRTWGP

T2: p73alpha (UniProt O15350 O15350:1-636)
T2 sequence: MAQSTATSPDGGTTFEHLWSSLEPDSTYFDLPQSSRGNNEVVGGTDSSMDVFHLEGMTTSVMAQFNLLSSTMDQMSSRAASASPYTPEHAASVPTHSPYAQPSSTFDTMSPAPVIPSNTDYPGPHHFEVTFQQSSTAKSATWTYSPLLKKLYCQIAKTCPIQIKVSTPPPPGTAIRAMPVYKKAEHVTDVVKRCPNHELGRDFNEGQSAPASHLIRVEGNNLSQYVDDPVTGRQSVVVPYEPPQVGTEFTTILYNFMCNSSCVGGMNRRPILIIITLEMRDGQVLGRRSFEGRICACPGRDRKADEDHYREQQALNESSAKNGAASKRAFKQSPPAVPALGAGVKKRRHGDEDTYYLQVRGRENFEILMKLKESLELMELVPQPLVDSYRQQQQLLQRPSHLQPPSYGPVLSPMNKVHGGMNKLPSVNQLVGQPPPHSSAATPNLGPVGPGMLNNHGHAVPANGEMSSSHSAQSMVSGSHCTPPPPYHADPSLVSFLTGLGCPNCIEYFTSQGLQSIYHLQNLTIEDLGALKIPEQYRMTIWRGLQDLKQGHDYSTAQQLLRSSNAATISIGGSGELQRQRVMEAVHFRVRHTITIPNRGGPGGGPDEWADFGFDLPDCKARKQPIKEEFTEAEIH

B1: deltaNp73 promoter 61-bp probe (dsDNA)
DNA 1: GTGCGGTCCAACACATCACCGGGCAAGCTGAGGCCTGCCCCGGACTTGGATGAATACTCAT
DNA 2: ATGAGTATTCATCCAAGTCCGGGGCAGGCCTCAGCTTGCCCGGTGATGTGTTGGACCGCAC

Experiments:
[1] = tested on: p73α and ΔNp73α in SH-SY5Y cells; test: Immunoblot (Western blotting) of cisplatin-treated tumor cells; type: cell-based, human; details: tumor cells treated with cisplatin, RT-PCR
Description: The present inventors ascertained that treating tumor cells with the DNA inhibiting agent cisplatin causes apoptosis of the tumor cells in a dose-dependent manner. Production of proteins p53 and p73α was confirmed by Western blotting. The tumor cells in this case are preferably neuroblastoma cells, but may also be other central or peripheral nervous system tumor cells.
The cells were lysed in EBC buffer (50 mM Tris-HCl, pH 8.0/120 mM NaCl/0.5% Nonidet P-40) containing 1 mM phenylmethylsulfonyl fluoride. The lysate was clarified by centrifugation at 14,000 rpm at 4° C. for 15 minutes. The protein concentration was determined by the Bradford procedure. For immunoblot analysis, the proteins were resolved by SDS […] gel electrophoresis and transferred to a nitrocellulose membrane. The membrane filter was blocked with 5% powdered milk in TBST (10 mM Tris-HCl, pH 8.0/150 mM NaCl/0.1% Tween 20) for 1 hour at room temperature. […] The bound secondary antibody was detected by enhanced chemiluminescence (ECL, Amersham Pharmacia Biotech) according to the manufacturer's protocol.
The whole cell protein (40 μg) was extracted from each culture. The expression levels of p73α and p53 were each determined by immunoblot analysis (described above) using p73α-specific antibody (Ab-1) or p53-specific antibody (DO-1). […]

[2] = molecular target: T1, p73beta; test: EMSA; supershifted by anti-HA; poly(dI-dC), 3.125 mM MgCl2, room temperature; details: tags: HA tag; TNT reticulocyte lysate; label: 32P
[3] = molecular target: T2, p73alpha; test: as above; details: tags: HA tag; TNT reticulocyte lysate; label: 32P

| Molecule | production of p73α and ΔNp73α at mRNA and protein level [1] | binding result [2] | binding result [3] |
| --- | --- | --- | --- |
| N.N.[Cl][Pt][Cl] [cisplatin] | induces production of p73α and ΔNp73α | – | – |
| B1 | – | binds | binds |
